According to patent US20140322163A1 (published 2014):

Tests used:
Assay in all cases: BLI
ZM109_FL = biological target: ZM109_FL
YU2_FL = biological target: YU2_FL
RSC3 = biological target: RSC3

B1: G54A (heavy chain) (antibody, V domains shown)
VH: QVQLVQSGGQMKKPGESMRISCRASGYEFIDCTLNWIRLAPGKRPEWMGWLKPRAGAVNYARPLQGRVTMTRDVYSDTAFLELRSLTVDDTAVYFCTRGKNCDYNWDFEHWGRGTPVIVSS
VL: EIVLTQSPGTLSLSPGETAIISCRTSQYGSLAWYQQRPGQAPRLVIYSGSTRAAGIPDRFSGSRWGPDYNLTISNLESGDFGVYYCQQYEFFGQGTKVQVDI
ZM109_FL
  Kd: 76 nM
YU2_FL
  Kd: 6.51 nM
RSC3
  Kd: 2.64 nM

B2: V3A (light chain) (antibody, V domains shown)
VH: QVQLVQSGGQMKKPGESMRISCRASGYEFIDCTLNWIRLAPGKRPEWMGWLKPRGGAVNYARPLQGRVTMTRDVYSDTAFLELRSLTVDDTAVYFCTRGKNCDYNWDFEHWGRGTPVIVSS
VL: EIALTQSPGTLSLSPGETAIISCRTSQYGSLAWYQQRPGQAPRLVIYSGSTRAAGIPDRFSGSRWGPDYNLTISNLESGDFGVYYCQQYEFFGQGTKVQVDI
ZM109_FL
  Kd: 54.7 nM
YU2_FL
  Kd: 27.6 nM
RSC3
  Kd: 6.09 nM
